Biological target: HLA-A*2401 (human)
Assay: inhibition of 125I probe peptide binding to purified HLA; IC50 standard/IC50 test

Row | Binder | relative binding ratio
1 | GYLYISAW [HER2/neu 408-415] | 0.0044
2 | CYQDTILWKDI [HER2/neu 162-172] | 0.0016
3 | LFRNPHQALL [HER2/neu 485-494] | 0.0014
4 | LFEDNYAL [HER2/neu 107-114] | 0.0006
5 | LFRNPHQAL [HER2/neu 485-493] | 0.0002
6 | AWPDSLPDL [HER2/neu 414-422] | 0.0041
7 | IFGSLAFL [HER2/neu 370-377] | 0.012
8 | EYVNARHCL [HER2/neu 553-561] | 0.0061
9 | LFEDNYALAVL [HER2/neu 107-117] | 0.0006
10 | SMPNPEGRYTF [HER2/neu 281-291] | 0.018
11 | SWLGLRSLREL [HER2/neu 451-461] | 0.0036
12 | CFVHTVPW [HER2/neu 475-482] | 0.019
13 | IFHKNNQL [HER2/neu 172-179] | -0.0003
14 | LYISAWPDSL [HER2/neu 410-419] | 0.084
15 | EFAGCKKI [HER2/neu 363-370] | -0.0003
16 | AYSLTLQGL [HER2/neu 440-448] | 0.13
17 | CYGLGMEHL [HER2/neu 342-350] | 0.018
18 | RWGLLLAL [HER2/neu 8-15] | 0.025
19 | AYSLTLQGLGI [HER2/neu 440-450] | 0.023
20 | SWLGLRSLR [HER2/neu 451-459] | -0.0003
21 | EFAGCKKIF [HER2/neu 363-371] | 0.0003
22 | RWGLLLALL [HER2/neu 8-16] | 1.3
23 | CYQDTILW [HER2/neu 162-169] | 0.012
24 | CFVHTVPWDQL [HER2/neu 475-485] | 0.0003
25 | HFNHSGICEL [HER2/neu 257-266] | 0.0002
26 | PMCKGSRCW [HER2/neu 197-205] | 0.0011

More lines, now with the values ahead:

Row | relative binding ratio | Binder
27 | 0.0005 | DFGLARLL [HER2/neu 863-870]
28 | 0.0032 | RMARDPQRF [HER2/neu 978-986]
29 | 0.012 | EYLVPQQGFF [HER2/neu 1022-1031]
30 | 0.0027 | IWIPDGENVKI [HER2/neu 738-748]
31 | 0.0014 | EYLVPQQGF [HER2/neu 1022-1030]
32 | 0.0002 | AFGTVYKGI [HER2/neu 730-738]
33 | -0.0003 | GMGAAKGL [HER2/neu 1091-1098]
34 | -0.0003 | EYHADGGKVPI [HER2/neu 876-886]
35 | 0.0002 | DFGLARLLDI [HER2/neu 863-872]
36 | 0.015 | KWMALESIL [HER2/neu 887-895]
37 | 0.12 | SYGVTVWEL [HER2/neu 907-915]
38 | 0.0005 | PYDGIPAREI [HER2/neu 922-931]
39 | 0.0011 | AFSPAFDNL [HER2/neu 1212-1220]
40 | 0.0002 | RFVVIQNEDL [HER2/neu 985-994]
41 | 0.0039 | AFDNLYYW [HER2/neu 1216-1223]
42 | 0.0076 | LMPYGCLL [HER2/neu 800-807]
43 | -0.0003 | GMGAAKGLQSL [HER2/neu 1091-1101]
44 | 0.012 | RYSEDPTVPL [HER2/neu 1111-1120]
45 | 0.0059 | SYLEDVRL [HER2/neu 834-841]
46 | 0.0008 | AFGTVYKGIWI [HER2/neu 730-740]
47 | 0.0024 | KYTMRRLL [HER2/neu 684-691]
48 | 0.011 | RFTHQSDVW [HER2/neu 898-906]
49 | 0.001 | AFGTVYKGIW [HER2/neu 730-739]
50 | -0.0003 | CMQIAKGMSYL [HER2/neu 826-836]
51 | 0.021 | IMVKCWMI [HER2/neu 954-961]
52 | 0.17 | PYVSRLLGI [HER2/neu 780-788]
53 | 0.018 | RFRELVSEF [HER2/neu 968-976]
54 | 0.008 | KWMALESI [HER2/neu 887-894]

From patent US20040018971A1
